Source: patent publication EP4089107A1 (Cytoki Pharma ApS, dated 2022)
Changes are numbered by the printed parent chain.

T1: human IL-22 receptor (human IL-22Ra and human IL-10Rb) expressed on BHK reporter cells (human, UniProt Q8N6P7 16-574; Q08334 20-325)
T1 sequence (looked up) 1: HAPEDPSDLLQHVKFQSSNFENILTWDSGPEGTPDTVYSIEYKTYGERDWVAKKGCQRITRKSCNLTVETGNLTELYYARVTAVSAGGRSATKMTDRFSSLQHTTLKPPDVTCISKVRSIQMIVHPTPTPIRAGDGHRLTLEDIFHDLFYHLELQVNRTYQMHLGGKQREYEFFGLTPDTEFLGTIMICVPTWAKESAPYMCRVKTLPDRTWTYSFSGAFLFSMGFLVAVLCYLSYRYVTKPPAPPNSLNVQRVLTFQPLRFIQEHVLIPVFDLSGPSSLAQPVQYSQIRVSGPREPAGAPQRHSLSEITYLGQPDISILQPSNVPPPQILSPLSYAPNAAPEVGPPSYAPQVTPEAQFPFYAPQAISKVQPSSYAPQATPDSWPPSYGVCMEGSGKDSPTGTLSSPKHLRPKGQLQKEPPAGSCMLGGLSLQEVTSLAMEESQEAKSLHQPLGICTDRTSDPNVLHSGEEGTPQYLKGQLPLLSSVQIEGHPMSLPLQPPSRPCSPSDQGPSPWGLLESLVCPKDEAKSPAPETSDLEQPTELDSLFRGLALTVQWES
T1 sequence (looked up) 2: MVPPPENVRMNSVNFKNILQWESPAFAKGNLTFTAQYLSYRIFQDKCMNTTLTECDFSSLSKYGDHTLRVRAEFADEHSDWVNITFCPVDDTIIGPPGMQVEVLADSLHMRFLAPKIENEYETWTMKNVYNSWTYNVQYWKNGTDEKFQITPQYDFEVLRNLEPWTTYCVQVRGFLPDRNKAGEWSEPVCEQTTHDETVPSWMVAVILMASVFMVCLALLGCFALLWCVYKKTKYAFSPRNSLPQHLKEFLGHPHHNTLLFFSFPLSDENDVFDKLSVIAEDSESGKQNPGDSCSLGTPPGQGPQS

B1: native mature human IL-22 (ligand)
chain: APISSHCRLDKSNFQQPYITNRTFMLAKEASLADNNTDVRLIGEKLFHGVSMSERCYLMKQVLNFTLEEVLFPQSDRFQPYMQEVVPFLARLSNRLSTCHIEGDDLHIQRNVQKLKDTVKKLGESGEIKAIGELDLLFMSLRNACI
B2: Derivative 1 (ligand)
chain: B1 chain with N35Q, N64Q, L106C
modifications: C18 diacid covalently attached via linker γGlu-OEG-OEG-C2DA-Ac at residue 106C
B3: Derivative 2 (ligand)
chain: B1 chain with N35Q, N64Q, R95C
modifications: C18 diacid covalently attached via linker γGlu-OEG-OEG-C2DA-Ac at residue 95C

Assays:
[1] = molecular target: T1, human IL-22 receptor (human IL-22Ra and …); test: cell-based or functional assay
[2] = molecular target: T1, human IL-22 receptor (human IL-22Ra and …); test: cell-based or functional assay; remark: listed apart in the source

| Binder | EC50 in BHK cell reporter gene assay (luciferase with STAT3-induced promoter) [1] | fold reduction in potency compared to hIL-22, BHK cell assay with albumin present [2] |
| --- | --- | --- |
| B1 | 0.07 nM |  |
| B2 | 0.23 nM | 3 fold |
| B3 | 0.36 nM | 5 fold |
